For assay [1], the target named is JR-CSF Env on JR-CSF pseudovirus. Description: cell-based or functional assay.
The target of assay [2] is BG505 N279A. Description: cell-based or functional assay.
The target in assay [3] is BG505 K282A. The experiment in a line: cell-based or functional assay.
In assay [4] the target is BG505 Env on BG505 pseudovirus (HIV isolate BG505). Description: cell-based or functional assay.
Assay [5] concerns the target BG505 D368R recombinant gp120 protein. The experiment in a line: ELISA on recombinant gp120. A general note: In an ELISA, binding on a coated surface is turned into a signal by an enzyme label.
The target of assay [6] is T1, BG505 WT recombinant gp120 protein (HIV isolate BG505).
T1 construct: also called WT protein
Description: ELISA on recombinant gp120.

The target in assay [7] is T2, BG505 SOSIP.664 gp140 trimer (HIV isolate BG505).
T2 construct: Soluble Env trimer made in HEK293F cells with co-transfected furin (cleaved gp120 and gp41 ectodomain, disulfide-linked); His- and Avi-tagged (biotinylated) versions were also made; also called BG505 SOSIP trimer; BG505 SOSIP.664-His gp140
The experiment in a line: complex used as bait in flow cytometry sorting. Background: In flow cytometry, cells or beads pass a laser one at a time.

For assay [8], the target named is BG505 N279A. Description: ELISA, gp120 captured from lysed virions.
In assay [9] the target is BG505 K282A. Description: ELISA, gp120 captured from lysed virions.
Assay [10] has as its target BG505 G472A. The experiment in a line: ELISA, gp120 captured from lysed virions.
The target in assay [11] is T3, JR-CSF gp120 captured from lysed virions (HIV isolate JR-CSF, UniProt P20871 32-503).
T3 construct: gp120 from NP40-lysed pseudovirus, captured by an anti-C5 gp120 antibody
The experiment in a line: ELISA, gp120 captured from lysed virions.

In assay [12] the target is T4, SS-B/La (human, UniProt P05455 1-408, limits assumed).
T4 sequence (looked up): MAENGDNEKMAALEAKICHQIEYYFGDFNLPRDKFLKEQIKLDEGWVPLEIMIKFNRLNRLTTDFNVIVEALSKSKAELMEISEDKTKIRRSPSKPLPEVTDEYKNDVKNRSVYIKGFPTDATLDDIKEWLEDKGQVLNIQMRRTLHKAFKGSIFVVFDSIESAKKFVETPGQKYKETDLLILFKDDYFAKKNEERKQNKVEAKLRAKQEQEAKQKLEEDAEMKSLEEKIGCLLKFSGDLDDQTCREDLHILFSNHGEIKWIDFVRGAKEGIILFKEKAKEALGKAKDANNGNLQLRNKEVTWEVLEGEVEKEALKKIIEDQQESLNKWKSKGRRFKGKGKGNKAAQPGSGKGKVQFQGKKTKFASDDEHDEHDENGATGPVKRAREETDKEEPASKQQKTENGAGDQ
The experiment in a line: single autoantigen ELISA (Aesku), cut-off of the manufacturer.
Description: (§1) Single antigen ELISA assays for SSA/Ro, SS-B/La, Sm, ribonucleoprotein (RNP), Jo-1, double-stranded DNA, centromere B, and histones were purchased from Aesku Diagnostics (Oakland, Calif.). The 96 wells were separately coated with these eight cellular and nuclear antigens for the qualitative detection of mAbs reactivity. A cut-off calibrator was provided by the manufacturer. The negative control was diluted human serum.

Assay [13] deals with T5, Jo-1 (human, UniProt P12081 1-509, limits assumed).
T5 sequence (looked up): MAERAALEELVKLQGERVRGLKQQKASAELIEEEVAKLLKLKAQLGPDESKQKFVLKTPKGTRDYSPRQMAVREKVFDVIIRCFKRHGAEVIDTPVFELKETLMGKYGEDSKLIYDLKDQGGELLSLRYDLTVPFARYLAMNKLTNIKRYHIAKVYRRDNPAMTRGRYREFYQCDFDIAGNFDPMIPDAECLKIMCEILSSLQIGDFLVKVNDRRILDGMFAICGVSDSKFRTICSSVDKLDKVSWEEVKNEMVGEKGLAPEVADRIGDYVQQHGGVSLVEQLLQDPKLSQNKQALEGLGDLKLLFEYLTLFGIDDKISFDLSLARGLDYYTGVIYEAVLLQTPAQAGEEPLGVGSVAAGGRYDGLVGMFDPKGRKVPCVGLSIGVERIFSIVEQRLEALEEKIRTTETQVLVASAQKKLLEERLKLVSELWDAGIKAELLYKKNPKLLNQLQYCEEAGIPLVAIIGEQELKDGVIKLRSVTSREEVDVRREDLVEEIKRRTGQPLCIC
Described as above.
Description: as §1

Assay [14] addresses T6, centromere B (human, UniProt P07199 1-599).
T6 sequence (looked up): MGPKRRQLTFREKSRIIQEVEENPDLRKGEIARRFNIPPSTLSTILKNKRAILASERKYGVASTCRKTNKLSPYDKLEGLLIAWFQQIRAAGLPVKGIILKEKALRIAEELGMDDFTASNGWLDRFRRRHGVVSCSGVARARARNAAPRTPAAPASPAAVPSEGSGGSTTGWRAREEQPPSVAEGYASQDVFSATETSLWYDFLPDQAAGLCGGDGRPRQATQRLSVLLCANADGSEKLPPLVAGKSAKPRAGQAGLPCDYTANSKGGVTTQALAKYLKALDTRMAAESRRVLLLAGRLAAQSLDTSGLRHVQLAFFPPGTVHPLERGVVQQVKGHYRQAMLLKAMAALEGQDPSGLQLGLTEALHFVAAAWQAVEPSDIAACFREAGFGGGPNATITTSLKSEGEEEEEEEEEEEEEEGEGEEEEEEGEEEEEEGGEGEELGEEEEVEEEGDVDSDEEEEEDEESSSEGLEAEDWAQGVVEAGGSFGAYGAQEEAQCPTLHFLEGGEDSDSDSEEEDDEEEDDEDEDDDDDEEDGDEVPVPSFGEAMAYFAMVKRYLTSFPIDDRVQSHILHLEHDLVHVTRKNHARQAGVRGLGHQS
The description is as above.
Description: as §1

Assay [15] has as its target T2, BG505 SOSIP.664 gp140 trimer. The experiment in a line: single particle negative stain electron microscopy.

The results in this text go back to patent US20200165324A1 (INTERNATIONAL AIDS VACCINE INITIATIVE, published 2020).

Broadly, the EC50 (read off the curve) is the midpoint of the concentration-response curve. As usually defined, the EC50 is the midpoint of the concentration-response curve.

B1: NC-Cow1 (antibody)
VH: QVQLRESGPSLMKPSQTLSLTCTVSGSSLNDKSVGWVRQAPGKALQWLGSVDTSGNTDYNPGLKSRLSITKDNSKSRISLTVTGMTTEDSATYYCITAHQKTNKKECPEDYTYNPRCPQQYGWSDCDCMGDRFGGYCRQDGCSNYIHRSTYEWYVSAWGQGLLVTVSS
VL: SYELTQPSSVSGSLGQRVSVTCSGSSSNVGNGYVSWYQLIPGSAPRTIIYGDTSRASGVPERFSGSRSGNTATLTISSLQAEDEADFFCASPDDSSSNAVFGSGTTLTVL
notes: detected with anti-human IgG; also called d238-P1B4_NC-Cow1; mature NC-Cow1 HC + mature NC-Cow1 LC
Take B1: the “IC50, pseudovirus neutralization” value in assay [1] worked out at 0.821 mg/L; in assay [2], 0.012 mg/L; in assay [3], 0.02 mg/L; in [4] it was 0.006 mg/L. The “EC50 (read off the curve)” value in assay [5] was about 0.04 mg/L; in assay [6], about 0.06 mg/L. The binding result in assay [7] was “binds”; in [12] it was “no binding (tested: 100 µg/ml)”; in assay [13], “no binding (tested: 100 µg/ml)”; in assay [14] it was “no binding (tested: 100 µg/ml)”. Moreover, the EC50 in assay [8] came to 0.11 mg/L; in [9], 1.18 mg/L; in assay [10], 0.37 mg/L; in assay [11], 0.075 mg/L.

B2: NC-Cow1 Fab (Fab)
VH: QVQLRESGPSLMKPSQTLSLTCTVSGSSLNDKSVGWVRQAPGKALQWLGSVDTSGNTDYNPGLKSRLSITKDNSKSRISLTVTGMTTEDSATYYCITAHQKTNKKECPEDYTYNPRCPQQYGWSDCDCMGDRFGGYCRQDGCSNYIHRSTYEWYVSAWGQGLLVTVSS
VL: SYELTQPSSVSGSLGQRVSVTCSGSSSNVGNGYVSWYQLIPGSAPRTIIYGDTSRASGVPERFSGSRSGNTATLTISSLQAEDEADFFCASPDDSSSNAVFGSGTTLTVL
notes: Fab used for negative stain electron microscopy; also called cow Fab NC-Cow1
Consider B2, for which the binding result in [15] is “binds”.

B3: NC-Cow2 Fab (Fab)
VH: KVQLRESGPSLVKPSQTLSLTCMVSGSSLSDKAVGWVRQAPGKALEWLGIISAGGNRGYNSGLRSRLTISKDNSKNEVSLRVRSVTTEDSATYFCGTVHQKTQRKPICPDGYSDDSTLRYYSRCSDRDCWRCTGTTYYDTCQCGTYTWIDTHELHVDAWGQGLLVTVSS
VL: QAVLNQPSSVSGSLGQRVSITCSGSSSNVGNGYVSWYQLIPGSAPRTLIYGDTSRASGVPDRFSGSRSGNTATLTISSLQAEDEADYFCASAEDSSSNAVFGSGTTLTVL
notes: Fab used for negative stain electron microscopy; also called cow Fab NC-Cow2
For B3, in assay [15], the binding result is “binds”.
